Patent US8618251
pKd: −log10 of the molar value.

Columns and labels:
[1] = biological target: soluble hFcγRIIIA FV (human) (UniProt P08637); assay: SPR Biacore T100, steady state, antibody immobilised
soluble hFcγRIIB (human) [2] = biological target: soluble hFcγRIIB (human) (UniProt P31994); assay: as above
C1q (Calbiochem) [3] = biological target: C1q (Calbiochem) (UniProt P02745); assay: as above
[4] = biological target: soluble hFcγRIIIA FF (human) (UniProt P08637); assay: as above
[5] = biological target: soluble hFcγRIIA^131H (human) (UniProt P12318); assay: as above
[6] = biological target: soluble hFcγRIIIA FV (human) (UniProt P08637); assay: SPR Biacore T100; reference of the fold not given
[7] = biological target: soluble hFcγRIIA^131R (human) (UniProt P12318); assay: SPR Biacore T100; reference of the fold not given
soluble hFcγRIIB (human) [8] = biological target: soluble hFcγRIIB (human) (UniProt P31994); assay: SPR Biacore T100; reference of the fold not given
C1q (Calbiochem) [9] = biological target: C1q (Calbiochem) (UniProt P02745); assay: SPR Biacore T100; reference of the fold not given
[10] = biological target: soluble hFcγRIIIA FF (human) (UniProt P08637); assay: SPR Biacore T100; reference of the fold not given
[11] = biological target: soluble hFcγRIIA^131H (human) (UniProt P12318); assay: SPR Biacore T100; reference of the fold not given
[12] = biological target: soluble hFcγ-receptor RIa (human) (UniProt P12314); assay: SPR Biacore T100; reference of the fold not given
[13] = biological target: soluble hFcγRIIA^131R (human) (UniProt P12318); assay: SPR Biacore T100, steady state, antibody immobilised
[14] = biological target: soluble hFcγ-receptor RIa (human) (UniProt P12314); assay: as above
C1q (Calbiochem) [15] = biological target: C1q (Calbiochem) (UniProt P02745); assay: SPR (Biacore T100), steady-state affinity; antibody immobilised on CM5 chip, C1q injected
[16] = biological target: soluble hFcγRIIA^131R (human) (UniProt P12318); assay: SPR (Biacore T100), steady-state affinity; antibody immobilised on CM5 chip, soluble receptor injected
[17] = biological target: soluble hFcγRIIA^131H (human) (UniProt P12318); assay: as above
[18] = biological target: soluble hFcγRIIIA FV (human) (UniProt P08637); assay: SPR (Biacore T100), steady-state affinity; antibody immobilised on CM5 chip, soluble receptor injected; column head hRIIIA158F, whose values for IEAL, ALEV and LLLFET are those of the hRIIIA FV column of Table 1

Sequence of C1q (Calbiochem) (P02745 23-245 limits assumed, chain 1 of 3): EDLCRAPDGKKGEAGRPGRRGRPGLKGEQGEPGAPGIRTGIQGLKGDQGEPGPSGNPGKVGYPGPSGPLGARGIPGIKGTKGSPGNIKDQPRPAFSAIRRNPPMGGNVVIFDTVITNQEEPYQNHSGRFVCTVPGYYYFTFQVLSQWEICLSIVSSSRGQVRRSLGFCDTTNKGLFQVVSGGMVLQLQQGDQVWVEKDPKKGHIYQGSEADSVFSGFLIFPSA
Sequence of C1q (Calbiochem) (P02746 28-253 limits assumed, chain 2 of 3, further chain): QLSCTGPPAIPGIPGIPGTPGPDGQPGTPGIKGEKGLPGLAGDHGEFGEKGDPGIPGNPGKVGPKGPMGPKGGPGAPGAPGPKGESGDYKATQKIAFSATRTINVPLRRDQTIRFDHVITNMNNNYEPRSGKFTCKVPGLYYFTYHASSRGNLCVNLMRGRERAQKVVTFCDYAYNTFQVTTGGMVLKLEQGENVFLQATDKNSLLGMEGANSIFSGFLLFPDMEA
Sequence of C1q (Calbiochem) (P02747 29-245 limits assumed, chain 3 of 3, further chain): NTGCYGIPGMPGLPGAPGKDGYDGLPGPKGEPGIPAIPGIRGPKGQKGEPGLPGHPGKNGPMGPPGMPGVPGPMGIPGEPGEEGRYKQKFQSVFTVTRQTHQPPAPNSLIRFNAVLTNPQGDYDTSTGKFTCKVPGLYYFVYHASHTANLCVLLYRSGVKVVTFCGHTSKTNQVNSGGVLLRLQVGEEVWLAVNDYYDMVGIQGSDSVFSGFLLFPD
Sequence of soluble hFcγRIIA^131H (human) (P12318 34-217): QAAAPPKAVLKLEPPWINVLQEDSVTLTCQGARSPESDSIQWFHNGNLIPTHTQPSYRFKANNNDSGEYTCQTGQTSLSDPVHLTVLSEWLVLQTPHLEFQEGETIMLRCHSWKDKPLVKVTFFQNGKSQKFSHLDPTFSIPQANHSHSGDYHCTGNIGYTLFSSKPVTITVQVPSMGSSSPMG
Sequence of soluble hFcγ-receptor RIa (human) (P12314 16-288 limits assumed): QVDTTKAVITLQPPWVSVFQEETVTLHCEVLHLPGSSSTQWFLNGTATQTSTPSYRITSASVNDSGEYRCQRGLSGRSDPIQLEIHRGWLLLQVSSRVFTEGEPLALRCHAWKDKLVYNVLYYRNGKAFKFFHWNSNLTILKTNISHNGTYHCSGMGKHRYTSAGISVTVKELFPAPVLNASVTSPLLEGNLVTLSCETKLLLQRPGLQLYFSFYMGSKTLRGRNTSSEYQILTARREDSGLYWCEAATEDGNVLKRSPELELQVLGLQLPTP
Sequence of soluble hFcγRIIA^131R (human) (P12318 34-217 H167R): as the sequence (P12318 34-217) above, with H134R counted along it
Sequence of soluble hFcγRIIB (human) (P31994 43-217 limits assumed): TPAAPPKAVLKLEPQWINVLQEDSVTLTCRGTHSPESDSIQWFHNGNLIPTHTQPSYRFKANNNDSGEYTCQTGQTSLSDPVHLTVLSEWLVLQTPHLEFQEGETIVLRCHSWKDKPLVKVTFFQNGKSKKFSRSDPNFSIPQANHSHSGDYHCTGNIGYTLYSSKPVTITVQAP
Sequence of soluble hFcγRIIIA FV (human) (P08637 17-208 F176V): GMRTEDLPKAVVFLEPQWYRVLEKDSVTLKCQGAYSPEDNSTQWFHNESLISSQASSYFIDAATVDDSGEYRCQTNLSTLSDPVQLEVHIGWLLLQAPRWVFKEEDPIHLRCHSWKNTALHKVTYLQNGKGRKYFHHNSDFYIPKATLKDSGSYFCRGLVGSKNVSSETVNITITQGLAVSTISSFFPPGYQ

Substance | pKd [1] | pKd (soluble hFcγRIIB (human) [2]) | pKd (C1q (Calbiochem) [3]) | pKd [4] | pKd [5] | Fold change in affinity [6] [fold] | Fold change in affinity [7] [fold] | Fold change in affinity (soluble hFcγRIIB (human) [8]) [fold] | Fold change in affinity (C1q (Calbiochem) [9]) [fold] | Fold change in affinity [10] [fold] | Fold change in affinity [11] [fold] | Fold change in affinity [12] [fold] | pKd [13] | pKd [14] | pKd (C1q (Calbiochem) [15]) | pKd [16] | pKd [17] | pKd [18]
4-4-20 hIgG1 Fc mutant I332T (antibody) | 5.58 | 5.07 | 7.45 | 4.97 | 6.04 |  |  |  |  |  |  |  |  |  |  |  |  | 
4-4-20 hIgG1 Fc mutant G236A-F243I-I332T (antibody) | 5.15 | 4.78 | 7.59 | 4.95 | 6.32 | 0.5 | 5 | 1.5 | 0.8 | 1.2 | 8.9 | 0.4 | 6.03 | 7.37 |  |  |  | 
4-4-20 hIgG1 Fc mutant K326E (antibody) | 6.25 |  | 7.20 | 5.14 | 5.87 | 2.9 | 8.7 | 3.5 | 2.2 |  | 2.5 |  | 6.08 |  |  |  |  | 
4-4-20 hIgG1 Fc mutant S239D (antibody) | 6.51 |  | 6.61 | 5.77 | 5.84 | 5.3 | 4.9 | 4.3 | 0.6 | 7.4 | 2.3 |  | 5.83 |  |  |  |  | 
4-4-20 hIgG1 Fc mutant F243I (antibody) | 5.15 | 4.93 | 7.02 | 5.00 | 5.25 | 0.4 | 0.9 | 0.9 |  | 1.4 | 0.6 |  | 5.11 |  |  |  |  | 
4-4-20 hIgG1 Fc mutant P396L (antibody) |  | 5.22 |  |  | 6.12 |  | 1.8 |  |  |  | 4 |  | 5.31 |  |  |  |  | 
4-4-20 hIgG1 with unmodified human IgG1 Fc (antibody) |  |  |  |  |  |  |  |  |  |  |  |  |  |  | 6.54 | 5.32 | 5.37 | 5.46
4-4-20 hIgG1 Fc mutant S298G (antibody) |  |  |  |  | 4.89 |  | 0.6 |  |  |  | 0.3 |  | 4.97 |  |  |  |  | 
4-4-20 hIgG1 Fc mutant T394P (antibody) |  | 4.97 |  |  | 5.23 |  | 1 | 1.1 |  |  | 0.5 |  | 5.06 |  |  |  |  | 
4-4-20 hIgG1 Fc mutant S298G-T299A (antibody) |  | 5.25 |  |  | 5.15 |  | 3 | 1.7 |  |  | 0.8 |  | 5.77 |  |  |  |  | 
4-4-20 hIgG1 Fc mutant K205E-V211A-G237V-F243L-V273I-T366S-M428L (antibody) | 5.05 | 4.87 | 6.53 | 4.94 | 5.00 | 0.4 | 5.6 | 1.8 |  | 1.2 | 0.4 | 0.4 | 6.07 | 7.36 |  |  |  | 

Further substances by rising pKd [13], results first:

pKd [1] | pKd (soluble hFcγRIIB (human) [2]) | pKd (C1q (Calbiochem) [3]) | pKd [4] | pKd [5] | Fold change in affinity [6] [fold] | Fold change in affinity [7] [fold] | Fold change in affinity (soluble hFcγRIIB (human) [8]) [fold] | Fold change in affinity (C1q (Calbiochem) [9]) [fold] | Fold change in affinity [10] [fold] | Fold change in affinity [11] [fold] | Fold change in affinity [12] [fold] | pKd [13] | pKd [14] | pKd (C1q (Calbiochem) [15]) | pKd [16] | pKd [17] | pKd [18] | Substance
5.46 | 5.21 |  |  | 5.15 |  | 6.1 | 4 |  |  | 0.6 |  | 6.11 |  |  |  |  |  | 4-4-20 hIgG1 Fc mutant V211A-F243L-K326E-D399V (antibody)
6.28 | 5.58 | 6.89 |  | 5.50 | 6.7 | 8.7 | 9.3 | 3.8 |  | 1.4 |  | 6.26 |  |  |  |  |  | 4-4-20 hIgG1 Fc mutant K326E-A339T (antibody)
5.51 | 6.11 |  |  |  |  |  |  |  |  |  |  | 6.28 |  |  |  |  |  | 4-4-20 hIgG1 Fc mutant P247L-M252L-V266L-Y278F-V302E-S354T (antibody)
5.17 | 5.01 | 6.15 | 4.92 | 6.33 | 0.6 | 9.6 | 2.5 | 0.4 | 1.1 | 9.2 | 0.7 | 6.30 | 7.44 |  |  |  |  | 4-4-20 hIgG1 Fc mutant G236A-K246E-F372Y-T394A-Q419L (antibody)
5.03 | 4.85 | 6.41 | 4.80 | 5.97 | 0.5 | 9.9 | 1.7 |  | 0.8 | 4.1 | 0.4 | 6.32 | 7.18 |  |  |  |  | 4-4-20 hIgG1 Fc mutant L163P-S183G-K222E-G236A-N276D-S298G-D312G (antibody)
5.25 | 5.09 | 6.25 | 4.96 | 6.29 | 0.3 | 10.1 |  | 0.5 | 1.2 | 8.4 | 1.1 | 6.33 | 7.93 |  |  |  |  | 4-4-20 hIgG1 Fc mutant P171S-S191C-G236A-K274M-T394P (antibody)
5.26 | 4.98 | 6.39 | 4.85 |  |  |  |  |  |  |  |  | 6.40 | 7.76 |  |  |  |  | 4-4-20 hIgG1 Fc mutant V188E-G236A-P244H-H268Y (antibody)
6.31 | 5.49 | 6.86 | 5.16 | 5.32 | 7.2 | 12.8 | 7.6 | 2.1 | 2.2 | 0.9 |  | 6.43 |  |  |  |  |  | 4-4-20 hIgG1 Fc mutant V215I-K326E-T359A-P396L (antibody)
 | 5.27 |  |  | 6.33 |  | 18.5 |  |  |  | 7.4 |  | 6.51 |  |  |  |  |  | 4-4-20 hIgG1 Fc mutant G236A-F243I-S298G-T299A-I332T (antibody)
